From patent US20140106352A1 (DUKE UNIVERSITY, published 2014)

Molecular target: T1, nephrin (human, UniProt O60500 23-1241)
T1 construct: whole, on cells; Endogenous protein in fixed podocytes; also called NPHS1
T1 sequence (looked up): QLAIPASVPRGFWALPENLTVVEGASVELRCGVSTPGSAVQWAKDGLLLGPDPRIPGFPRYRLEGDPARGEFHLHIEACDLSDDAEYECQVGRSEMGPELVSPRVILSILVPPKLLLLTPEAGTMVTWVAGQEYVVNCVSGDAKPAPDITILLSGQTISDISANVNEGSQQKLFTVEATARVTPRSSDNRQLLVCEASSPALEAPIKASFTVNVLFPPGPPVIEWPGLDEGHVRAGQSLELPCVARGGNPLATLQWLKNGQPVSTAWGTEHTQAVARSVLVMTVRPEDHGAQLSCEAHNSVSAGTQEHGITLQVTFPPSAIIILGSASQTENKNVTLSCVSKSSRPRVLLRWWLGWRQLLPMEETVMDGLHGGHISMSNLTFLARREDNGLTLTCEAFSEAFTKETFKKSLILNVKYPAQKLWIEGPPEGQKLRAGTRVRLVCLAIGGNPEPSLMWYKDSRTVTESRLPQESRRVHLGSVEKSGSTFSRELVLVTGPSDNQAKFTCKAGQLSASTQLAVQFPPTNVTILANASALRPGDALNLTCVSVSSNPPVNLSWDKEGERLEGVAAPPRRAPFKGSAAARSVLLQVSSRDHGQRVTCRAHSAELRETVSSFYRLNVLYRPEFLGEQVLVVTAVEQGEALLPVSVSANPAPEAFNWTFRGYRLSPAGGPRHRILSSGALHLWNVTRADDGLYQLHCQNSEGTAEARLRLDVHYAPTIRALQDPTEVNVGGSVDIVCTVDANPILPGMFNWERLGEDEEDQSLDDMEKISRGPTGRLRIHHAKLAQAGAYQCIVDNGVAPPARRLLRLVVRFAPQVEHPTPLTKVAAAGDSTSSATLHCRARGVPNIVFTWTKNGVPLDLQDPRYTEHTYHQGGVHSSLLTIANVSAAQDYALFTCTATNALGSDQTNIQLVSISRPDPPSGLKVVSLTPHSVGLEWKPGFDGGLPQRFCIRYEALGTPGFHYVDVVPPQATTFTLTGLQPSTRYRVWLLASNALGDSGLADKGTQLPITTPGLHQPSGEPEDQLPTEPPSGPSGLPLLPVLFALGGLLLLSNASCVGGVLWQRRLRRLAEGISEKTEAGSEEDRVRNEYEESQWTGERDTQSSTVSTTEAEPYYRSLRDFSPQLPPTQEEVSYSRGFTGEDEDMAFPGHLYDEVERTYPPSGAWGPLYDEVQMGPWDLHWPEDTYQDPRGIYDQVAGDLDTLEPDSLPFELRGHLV
Test: only co-localisation by immunofluorescence in immortalized human podocytes (FIG. 3); no direct binding assay
Procedure: Endogenous anillin protein staining is shown in red. Co-immunolabeling for anti-CD2AP (A) anti-RhoA (B), anti-nephrin (C) anti-INF2 (D) and anti-F-actin are shown in green. Cell nuclei are stained with DAPI (blue). Anillin is strongly expressed in both the nucleus and cytoplasm and co-localizes with CD2AP, RhoA, nephrin, INF2, F-actin and TRPC6, in cultured immortalized human podocytes. IgG served as the control antibody (0).
Immortalized human podocytes were cultured on collagen I-coated coverslips (BD Biosciences) and treated as indicated. Cells were then fixed with 4% paraformaldehyde in PBS (Sigma). Podocytes were then washed twice with ice cold PBS prior to permeabilization with 0.1% Triton X-100 in PBS. Cells were then washed with ice cold PBS twice and blocked with buffer containing 5% goat serum prior to incubation with rabbit polyclonal Anillin antibody (Bethyl Laboratories, Montgomery, Tex.), mouse monoclonal Rho A antibody (Abeam), mouse monoclonal nephrin antibody (Abgent, Inc, San Diego, Calif.), and mouse polyclonal CD2AP antibody (Santa Cruz Biotechnologies, Santa Cruz, Calif.) overnight at 4° C. Cells were then washed with ice cold PBS and secondary Alexa Flora 488 antibody was applied (invitrogen) at a concentration of 1:1,000 for 1 hour at room temperature. […]

B1: anillin (ANLN), wild-type, endogenous in immortalized human podocytes (other)
chain: MDPFTEKLLERTRARRENLQRKMAERPTAAPRSMTHAKRARQPLSEASNQQPLSGGEEKSCTKPSPSKKRCSDNTEVEVSNLENKQPVESTSAKSCSPSPVSPQVQPQAADTISDSVAVPASLLGMRRGLNSRLEATAASSVKTRMQKLAEQRRRWDNDDMTDDIPESSLFSPMPSEEKAASPPRPLLSNASATPVGRRGRLANLAATICSWEDDVNHSFAKQNSVQEQPGTACLSKFSSASGASARINSSSVKQEATFCSQRDGDASLNKALSSSADDASLVNASISSSVKATSPVKSTTSITDAKSCEGQNPELLPKTPISPLKTGVSKPIVKSTLSQTVPSKGELSREICLQSQSKDKSTTPGGTGIKPFLERFGERCQEHSKESPARSTPHRTPIITPNTKAIQERLFKQDTSSSTTHLAQQLKQERQKELACLRGRFDKGNIWSAEKGGNSKSKQLETKQETHCQSTPLKKHQGVSKTQSLPVTEKVTENQIPAKNSSTEPKGFTECEMTKSSPLKITLFLEEDKSLKVTSDPKVEQKIEVIREIEMSVDDDDINSSKVINDLFSDVLEEGELDMEKSQEEMDQALAESSEEQEDALNISSMSLLAPLAQTVGVVSPESLVSTPRLELKDTSRSDESPKPGKFQRTRVPRAESGDSLGSEDRDLLYSIDAYRSQRFKETERPSIKQVIVRKEDVTSKLDEKNNAFPCQVNIKQKMQELNNEINMQQTVIYQASQALNCCVDEEHGKGSLEEAEAERLLLIATGKRTLLIDELNKLKNEGPQRKNKASPQSEFMPSKGSVTLSEIRLPLKADFVCSTVQKPDAANYYYLIILKAGAENMVATPLASTSNSLNGDALTFTTTFTLQDVSNDFEINIEVYSLVQKKDPSGLDKKKKTSKSKAITPKRLLTSITTKSNIHSSVMASPGGLSAVRTSNFALVGSYTLSLSSVGNTKFVLDKVPFLSSLEGHIYLKIKCQVNSSVEERGFLTIFEDVSGFGAWHRRWCVLSGNCISYWTYPDDEKRKNPIGRINLANCTSRQIEPANREFCARRNTFELITVRPQREDDRETLVSQCRDTLCVTKNWLSADTKEERDLWMQKLNQVLVDIRLWQPDACYKPIGKP
notes: Endogenous intracellular protein stained in fixed, permeabilised immortalized human podocytes
B1: binds.
